Series [1] can be described thus: folding stability dG unfold from trypsin proteolysis; higher = more stable. In a few lines: (§1)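 Only designs with AlphaFold2 dimer inter-PAE above 15 were retained; each was a mini-protein under 80 residues with no cysteine, in a PA-tagged cDNA display construct. After digestion with trypsin and chymotrypsin and sequencing, K50 was inferred by Bayesian fitting of counts, and unfolding free energy was derived per protease or combined against a sequence-predicted unfolded-state K50 and a shared folded-state K50.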

Series [2] in a line: folding stability dG unfold (combined trypsin and chymotrypsin); higher = more stable. A digest of the protocol: as §1
Series [3] in a line: folding stability dG unfold from chymotrypsin proteolysis; higher = more stable. In a few lines:
as §1

36 sequences from the supplement of paper PMC12764529 can be followed below.

± gives the half width of the 95% confidence interval.

For the sequence “SNPWVEITIYFPMRPDPNGKMQPLSPSELLEELLKQGFPIKDIDIDEVTDNYIPITIRIDAKDGKIEIEWSA [r9_225_TrROS]”, the figures for the “folding stability dG unfold” value in series [1], in series [2] and in series [3] were 2.12 ± 0.21 kcal/mol, 2.85 ± 0.19 kcal/mol and 3.18 ± 0.13 kcal/mol, respectively.

With “SNVHIHVEPDPDGRVKITLMMPPDNPDEFAEEIAENLGYPVKITDIEPFPFKKNGKPREYYMIEIEIRLPSA [r9_431_TrROS]”, the entries for the “folding stability dG unfold” value in series [1], in series [2] and in series [3] were 1.15 ± 0.13 kcal/mol, 2.17 ± 0.25 kcal/mol and 2.56 ± 0.2 kcal/mol, respectively.

Turning to “SNYLMIRIKEIDPNNPNKIKIEDIHPMPDNGNVQINIEHPGQEIYVMFNSADDAEEFINTLLKNYGLKPESA [r9_258_TrROS]”, the “folding stability dG unfold” value amounted to 0.925 ± 0.053 kcal/mol in series [1], 1.33 ± 0.098 kcal/mol in series [2] and 1.6 ± 0.11 kcal/mol in series [3].

For the sequence “SPEIKIELVYDEETEELYLEIEIRFPESEEEAIEALKKLLEELGFEVVEIEEIEVEEDGTVRIRVRIRKKSA [r9_876_TrROS_Hall]”, the “folding stability dG unfold” value in series [1] was 4.87 ± 0.31 kcal/mol; in series [2], > 6 kcal/mol; in series [3] it was 4.47 ± 0.7 kcal/mol.

Regarding “SPFIMIRIDIERKNGKEVEMMFPVPANNIKNNLRDHLGPGYKVKITDIEPIDPEQFPPGQMIKIRYRVKPSA [r9_803_TrROS]”, the “folding stability dG unfold” value worked out at 1.73 ± 0.048 kcal/mol in series [1], 1.79 ± 0.18 kcal/mol in series [2] and 1.71 ± 0.13 kcal/mol in series [3].

Regarding “SPGMEPIREWELKLPDPDGEDKDLEVEMYRMPEGNYYVDISIPNGKKIPFPMPPDEPITPDDIRNFIKKFSA [r9_616_TrROS]”, the figures for the “folding stability dG unfold” value in series [1], in series [2] and in series [3] were 0.133 ± 0.26 kcal/mol, 0.394 ± 0.28 kcal/mol and 0.613 ± 0.23 kcal/mol, respectively.

Consider “SPGVTVEISTSTLPNGTRVTTLTTTTFDPQTGTTSTTTTVTVSPAPSSASPLRRELVTRPDGTLVPAALLSA [r9_898_JUSTAS]”, for which the “folding stability dG unfold” value in series [1] is -0.234 ± 0.13 kcal/mol; in series [2], 0.168 ± 0.076 kcal/mol; in series [3], 0.235 ± 0.16 kcal/mol.

For “SPGWYKVDIEIPMKEIQEEFGDPDKPITADRIKERVKKIAETIGFEVRDVEIEMDPNGWVRVTVTIPVKNSA [r9_52_TrROS]”, the figures for the “folding stability dG unfold” value in series [1], in series [2] and in series [3] were 3.77 ± 0.3 kcal/mol, 3.64 ± 0.19 kcal/mol and 3.89 ± 0.11 kcal/mol, respectively.

Consider “SPIKLPIVFPNLPKEEAKEAVEALAKELEEKYGFKIEVEVEELRAPDGKLVAVVAIATIEKFGEEDKLLFSA [r9_21_TrMRF]”, for which the “folding stability dG unfold” value in series [1] stood at 1.3 ± 0.08 kcal/mol; in series [2], 1.2 ± 0.18 kcal/mol; in series [3], 1.12 ± 0.14 kcal/mol.

In the case of “SPIRIRIWNPKNNVPIDEIDIQPNEDGNYGIKIKFWMPGKQHEHTIPIPPGETADEFINDHGIRSIEIEPSA [r9_492_TrROS]”, the entries for the “folding stability dG unfold” value in series [1], in series [2] and in series [3] were 0.13 ± 0.085 kcal/mol, 0.7 ± 0.086 kcal/mol and 1.01 ± 0.11 kcal/mol, respectively.

Turning to “SPKELEFKHPDNGMEVKIRLDPNQGRIEIEVRPPNGPPVKMDMEVTDDRIKIDIYYPGGRPMMQLEFPLPSA [r9_665_TrROS]”, the “folding stability dG unfold” value in series [1] came to 2.92 ± 0.15 kcal/mol; in series [2], 2.88 ± 0.085 kcal/mol; in series [3], 2.79 ± 0.074 kcal/mol.

In the case of “SPKIKIVSVSRTAGGALVALLELEDRPITLYRPLALPYILASAEIPGTNEVKTILAPSSISPEEIAKLLGSA [r9_522_TrMRF]”, the entries for the “folding stability dG unfold” value in series [1], in series [2] and in series [3] were 1.59 ± 0.037 kcal/mol, 1.75 ± 0.089 kcal/mol and 1.75 ± 0.09 kcal/mol, respectively.

In the case of “SPKVTLTLEGKVITFPAPLAEKLLGELQRKGYKVKILSVEPDPETDEIYLVMEVEPLKPPPLPPPNPLLESA [r9_448_TrMRF]”, the “folding stability dG unfold” value in series [1] stood at 1.16 ± 0.14 kcal/mol; in series [2], 2.05 ± 0.35 kcal/mol; in series [3], 2.28 ± 0.062 kcal/mol.

Take “SPLTAEQIKKLLRELFPNAKIVSIEYDKENKTVTITFEDGLKIEVTVTEDGRVIIRITLPGKEITIEIEVSA [r9_304_TrROS_Hall]”: the “folding stability dG unfold” value in series [1] was 4.22 ± 0.3 kcal/mol; in series [2] it was 4.44 ± 0.22 kcal/mol; in series [3], 4.03 ± 0.23 kcal/mol.

For “SPLVLNPEGRTLTITLTVTVDPDVDRQVVPVLVVDEGAPRTFTFEVPKGLAGPVTFTLEIDLPPGAYVEVSA [r9_973_TrMRF]”, the “folding stability dG unfold” value in series [1] came out at 2.05 ± 0.028 kcal/mol; in series [2], 2.18 ± 0.049 kcal/mol; in series [3], 2.29 ± 0.066 kcal/mol.

As to “SPNLKPVEFPIKIPGYKIRRVSIWKSPDGPVEIFVRFPDGWYYEFEIPPNGDIQPMKITEAVPPDEDKKNSA [r9_1075_TrROS]”, the “folding stability dG unfold” value in series [1] is 1.57 ± 0.086 kcal/mol; in series [2], 1.38 ± 0.16 kcal/mol; in series [3] it was 1.14 ± 0.17 kcal/mol.

As to “SPNMQPVEMEFKIKVPGKPVDIKIEMWRMPDGQTRMDIRYPDGRSIMFNPSNGSIKIYDPKDGKPLAEISSA [r9_970_TrROS]”, the results for the “folding stability dG unfold” value in series [1], in series [2] and in series [3] were 1.1 ± 0.057 kcal/mol, 1.38 ± 0.16 kcal/mol and 1.47 ± 0.073 kcal/mol, respectively.

Regarding “SPPVRARIRVERLPDGSVRVELEVEFPDGVRVRIETLEAPPETGVVRVRARFFPPDGSSVEFEFTFPLLRSA [r9_1179_TrMRF]”, the “folding stability dG unfold” value in series [1] came to 3.74 ± 0.086 kcal/mol; in series [2], 4.52 ± 0.11 kcal/mol; in series [3], 4.96 ± 0.12 kcal/mol.

“SPQNLVRIAEIKVELKLDGKKYIITIEVYRPPDSDEVIVRVKVIDPSSDKSSPELEKIAKELEKKIEEELKS [r1_229_JUSTAS]”: the “folding stability dG unfold” value turned out to be 2.53 ± 0.19 kcal/mol in series [1], 3.54 ± 0.18 kcal/mol in series [2] and 4.09 ± 0.1 kcal/mol in series [3].

In the case of “SPRIKIDIPFFNANGHPQEVEIEYSPTDGMLMIKFPRNGYYIMIQIKRIEWEDGKLEIELDIFIMPPGDFSA [r9_587_TrROS]”, the “folding stability dG unfold” value in series [1] came to 3.01 ± 0.18 kcal/mol; in series [2], 4.17 ± 0.43 kcal/mol; in series [3], 4.55 ± 0.22 kcal/mol.

For the sequence “SPSTTIPQTITLDTKLPNGKPATPEEVKAIAEEIVKKLEKEKGVKISINVKVTPVDSSGKYKLDITITIIKS [r1_231_JUSTAS]”, the “folding stability dG unfold” value in series [1] was 2.14 ± 0.047 kcal/mol; in series [2], 2.59 ± 0.11 kcal/mol; in series [3] it was 2.81 ± 0.072 kcal/mol.

With “SPVEIVSEETDPNGGTKYKTYSNPQADVRIEVAYPSSGITITVHFPDSTSTKSFSSEADAEKEVVRLAASSA [r9_527_JUSTAS]”, the “folding stability dG unfold” value in series [1] stood at 0.339 ± 0.086 kcal/mol; in series [2] it was 0.711 ± 0.11 kcal/mol; in series [3], 0.944 ± 0.15 kcal/mol.

For the sequence “SPVLEKIRKLVEELLKKLGIEVKEGETVEIEITLPDGSTIRITFDAKTKKITVEITIDGKKVTLTLEIKPSA [r9_426_TrROS_Hall]”, the results for the “folding stability dG unfold” value in series [1], in series [2] and in series [3] were 4.2 ± 0.3 kcal/mol, > 6 kcal/mol and 5.68 ± 0.72 kcal/mol, respectively.

In the case of “SPVSLSFTTAPSGLPTVTSASQPADGSLLLTLTEPATGATTTLTLPPGLPPGVERTVTLPGPDGATTLTVGS [r1_43_JUSTAS]”, the figures for the “folding stability dG unfold” value in series [1], in series [2] and in series [3] were -0.678 ± 0.19 kcal/mol, 0.364 ± 0.073 kcal/mol and 0.723 ± 0.11 kcal/mol, respectively.

“SPVVVTTSPGPDGGARVTIYFPKTGKPIEFDITDPDLVEESTSDPNTRVDIPEEVLRSLAPDLFTGFTTESA [r9_390_TrMRF]”: the “folding stability dG unfold” value in series [1] turned out to be 0.497 ± 0.046 kcal/mol; in series [2], 0.362 ± 0.065 kcal/mol; in series [3], 0.241 ± 0.1 kcal/mol.

Take “SPWYVRIKLEYPGKEKRIMIPPDESISQIKDNIRDFAREMGLEEPPLDDFKIEDVEVFPDENGMVSIEIKSA [r9_1053_TrROS]”: the “folding stability dG unfold” value in series [1] amounted to 0.606 ± 0.32 kcal/mol; in series [2], 0.819 ± 0.41 kcal/mol; in series [3], 1.15 ± 0.21 kcal/mol.

Turning to “SPYTVDSVSEDPSRNSTTVLNFPDGTTVTVTYDPSNPSLATVTVRPADGTTETTTVPLDEPFVVNLTVNPSA [r9_875_JUSTAS]”, the “folding stability dG unfold” value in series [1] turned out to be 0.922 ± 0.074 kcal/mol; in series [2], 1.02 ± 0.21 kcal/mol; in series [3], 0.94 ± 0.17 kcal/mol.

Turning to “SQWVIKIKFPNPDGEPVKIIFPVEEIQEIFKEEHGEPSSPQEFADRLAKHHPNVDVEIMPLDDMPPEQLNSA [r9_1085_TrROS]”, the “folding stability dG unfold” value is -0.998 ± 0.66 kcal/mol in series [1], -0.0736 ± 0.34 kcal/mol in series [2] and 0.42 ± 0.21 kcal/mol in series [3].

For “SRDLLKELAEKFPNFEPKGVQEEPTDNGGVKLQVIARHPKNGRYYKIEITVPPDGKIEDIEIEPVPLDDLSA [r9_274_TrROS]”, the “folding stability dG unfold” value in series [1] amounted to 2.3 ± 0.045 kcal/mol; in series [2], 2.61 ± 0.09 kcal/mol; in series [3], 2.823 ± 0.021 kcal/mol.

On to “SRRLITIEITVTLPGNPEVTLSKTLKLPTEDVEEAIEKAKKEFKEEFGIPEDVPVKIEVTVSTSDGDPSLQS [r1_149_JUSTAS]”, for which the “folding stability dG unfold” value came to 2.53 ± 0.18 kcal/mol in series [1], 1.96 ± 0.068 kcal/mol in series [2] and 1.56 ± 0.049 kcal/mol in series [3].

Turning to “SRTIENPDNGIKITVDRVPGGRYRVHIFNPGGKPIHEREIPDMPIPPGDTREIKIPIKGLPPGMYLMLEPWS [r1_263_TrROS]”, the “folding stability dG unfold” value in series [1] was 0.502 ± 0.16 kcal/mol; in series [2], 0.719 ± 0.13 kcal/mol; in series [3] it was 0.842 ± 0.13 kcal/mol.

Turning to “SSAEEIVEKLKKELEEKLPEDYKITSVTLTKSPDGIVTAPMTIKSSDGVESTVTVTYDLKTGKITIEVNSSA [r9_219_JUSTAS]”, the “folding stability dG unfold” value in series [1] was 3.42 ± 0.25 kcal/mol; in series [2], 4.73 ± 0.22 kcal/mol; in series [3] it was 4.84 ± 0.12 kcal/mol.

Consider “SSEELRELILNEAAKLGVKIKEIKVKEDPSTNTVSIEITVPDGKVIKLSFTRTSDGGYSYDINELKAGLESA [r9_85_JUSTAS]”, for which the “folding stability dG unfold” value in series [1] is 5.35 ± 0.35 kcal/mol; in series [2] it was > 6 kcal/mol; in series [3], 6.2 ± 0.14 kcal/mol.

For the sequence “SSISIPGLTEEKAAELAKRLRELFPGAEVKTTTFPEKKVVVVDVTLPVVDADGKLVGTVKLRLVLVVEDDSA [r9_378_TrMRF]”, the “folding stability dG unfold” value in series [1] came out at 4.6 ± 0.19 kcal/mol; in series [2] it was 4.84 ± 0.34 kcal/mol; in series [3], 4.55 ± 0.21 kcal/mol.

On to “SSISPSSTLTFSKPFPDDDINAVKEFAEKLAKEIGPDVSVVKIEKDPNNPNKVTITISVPGTSITVNFSNSA [r9_1079_JUSTAS]”, for which the results for the “folding stability dG unfold” value in series [1], in series [2] and in series [3] were 1.09 ± 0.054 kcal/mol, 1.01 ± 0.14 kcal/mol and 0.664 ± 0.26 kcal/mol, respectively.

For the sequence “SSKIKEFIIKLPEKNKYYKIIVTPTEIYIYDENGKKIKKFSIPKNKKIKKIDIKIDKKKNKLIIKVYLEKSA [r9_939_TrMRF]”, the “folding stability dG unfold” value was determined as 4.14 ± 0.23 kcal/mol in series [1], 4.42 ± 0.21 kcal/mol in series [2] and 4.54 ± 0.098 kcal/mol in series [3].
